Reference: PMC8086355, “The unusual structure of the PiggyMac cysteine-rich domain reveals zinc finger diversity in PiggyBac-related transposases”

Tests used:
[1] = biological target: Pgm(692–768)* (Paramecium tetraurelia); test: NMR titration; 100 μM 15N-Pgm(692–768)* titrated with 50 to 1000 μM H3(1–19), 1H-15N HSQC at 800 MHz, 5 mM HEPES pH 6.8, 25 mM NaCl, 20 °C; apparent KD from the chemical shift perturbations of E739, assuming 1:1 binding; 1H-1H TOCSY on the final titration point
[2] = biological target: H3(1–19)K4me3-b (Paramecium tetraurelia); test: ELISA; C-terminally biotinylated peptides (4 μM) on streptavidin-coated plates; purified MBP or MBP-CRD fusions (10 to ~100 nM) in buffer C (25 mM Tris pH 7.4, 150 mM NaCl, 0.1% BSA, 0.05% Tween 20), 4 °C overnight; anti-MBP-HRP, absorbance at 450 nm
Pgm(692-768)* CRD = biological target: T1, Pgm(692-768)* CRD (Paramecium tetraurelia, UniProt A0DFJ7 692-768); test: NMR (1H-1H NOESY); equimolar DNA; 2 Zn2+ in protein; DRaCALA: 25 mM HEPES pH 7.5, 0.1 mg/ml BSA, 0.5 mM DTT, 100 mM NaCl, 25 nM DNA, no competitor, temperature not stated; EMSA: as in earlier paper, 5% acrylamide; settings: protein: recombinant; tags: GST cleaved by PreScission; seven linker residues left at N-terminus; blunt
T1 sequence: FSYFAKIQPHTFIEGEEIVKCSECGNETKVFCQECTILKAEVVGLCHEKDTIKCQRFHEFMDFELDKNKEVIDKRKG

GST-Pgm(692-768) CRD [3] = biological target: T2, GST-Pgm(692-768) CRD (Paramecium tetraurelia, UniProt A0DFJ7 692-768); test: EMSA; DRaCALA: 25 mM HEPES pH 7.5, 0.1 mg/ml BSA, 0.5 mM DTT, 100 mM NaCl, 25 nM DNA, no competitor, temperature not stated; EMSA: as in earlier paper, 5% acrylamide; settings: protein: recombinant; tags: N-terminal GST; label: 32P
T2 sequence: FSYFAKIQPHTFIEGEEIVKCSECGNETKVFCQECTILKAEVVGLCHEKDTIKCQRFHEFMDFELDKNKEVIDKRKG

GST-Pgm(692-768) CRD [4] = biological target: T2, GST-Pgm(692-768) CRD; test: DRaCALA; no competitor DNA; DRaCALA: 25 mM HEPES pH 7.5, 0.1 mg/ml BSA, 0.5 mM DTT, 100 mM NaCl, 25 nM DNA, no competitor, temperature not stated; EMSA: as in earlier paper, 5% acrylamide; settings: protein: recombinant; tags: N-terminal GST; label: 32P at 5' end of top strand
MBP-Pgm = biological target: T3, MBP-Pgm (Paramecium tetraurelia, UniProt A0DFJ7 1-1065); test: DRaCALA; 400 nM protein; DRaCALA: 25 mM HEPES pH 7.5, 0.1 mg/ml BSA, 0.5 mM DTT, 100 mM NaCl, 25 nM DNA, no competitor, temperature not stated; EMSA: as in earlier paper, 5% acrylamide; settings: protein: recombinant; tags: N-terminal MBP; label: 32P at 5' end of top strand
T3 sequence: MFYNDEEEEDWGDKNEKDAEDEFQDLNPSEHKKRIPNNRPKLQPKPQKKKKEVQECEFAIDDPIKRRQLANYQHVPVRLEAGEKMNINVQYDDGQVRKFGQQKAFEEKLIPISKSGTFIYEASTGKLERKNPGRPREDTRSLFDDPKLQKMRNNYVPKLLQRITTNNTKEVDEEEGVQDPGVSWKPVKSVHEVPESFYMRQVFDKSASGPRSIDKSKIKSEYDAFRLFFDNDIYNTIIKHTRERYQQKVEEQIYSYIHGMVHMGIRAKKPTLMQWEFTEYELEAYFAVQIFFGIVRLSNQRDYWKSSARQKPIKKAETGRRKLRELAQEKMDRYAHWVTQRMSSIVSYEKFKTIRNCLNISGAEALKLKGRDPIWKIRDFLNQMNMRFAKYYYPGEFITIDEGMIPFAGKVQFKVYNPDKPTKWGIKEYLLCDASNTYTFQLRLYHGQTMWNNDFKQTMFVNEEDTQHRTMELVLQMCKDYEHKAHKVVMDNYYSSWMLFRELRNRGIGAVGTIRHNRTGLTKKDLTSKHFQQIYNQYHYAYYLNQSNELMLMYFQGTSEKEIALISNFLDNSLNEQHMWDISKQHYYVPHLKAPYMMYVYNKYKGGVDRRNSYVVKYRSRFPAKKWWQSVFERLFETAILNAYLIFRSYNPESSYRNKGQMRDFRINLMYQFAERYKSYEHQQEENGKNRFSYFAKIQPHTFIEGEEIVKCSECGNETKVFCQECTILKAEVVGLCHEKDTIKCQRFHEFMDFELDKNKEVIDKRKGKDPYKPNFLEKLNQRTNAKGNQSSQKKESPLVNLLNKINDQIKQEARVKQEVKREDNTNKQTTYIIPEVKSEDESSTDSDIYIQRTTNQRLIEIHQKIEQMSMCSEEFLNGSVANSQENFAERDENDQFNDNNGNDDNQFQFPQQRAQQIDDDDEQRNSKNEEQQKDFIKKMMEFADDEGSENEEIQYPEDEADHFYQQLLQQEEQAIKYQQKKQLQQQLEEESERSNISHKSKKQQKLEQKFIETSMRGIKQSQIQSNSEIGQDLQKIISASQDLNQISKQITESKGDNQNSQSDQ

## H3(1–19) (peptide)
[1]
  Kd: 289 µM

## MBP-Pgm(692–768) (domain or fragment)
[2]
  reduction of the ELISA interaction signal relative to unmodified H3(1–19): 30%

B1: i4404 (NMR) (dsDNA)
DNA 1: GCTTGCACATCTCTAGTTGATGG
DNA 2: CCATCAACTAGAGATGTGCAAGC
Pgm(692-768)* CRD
  binding result: no binding

B2: IES 51A4404 left end 70-bp substrate (dsDNA)
DNA 1: CTAGCTTACAACGCAGCTTGCACATCTCTAGTTGATGGTATTGTGGTGTTATTTTAAAAAGTAATATATT
DNA 2: CGATAATATATTACTTTTTAAAATAACACCACAATACCATCAACTAGAGATGTGCAAGCTGCGTTGTAAG
GST-Pgm(692-768) CRD [3]
  binding result: no binding

B3: i1835 (NMR) (dsDNA)
DNA 1: CTACTACATAATGCTAAACTCATTTATAGATGGATTGTTTTCCAAGTATCTATATC
DNA 2: GATATAGATACTTGGAAAACAATCCATCTATAAATGAGTTTAGCATTATGTAGTAG
Pgm(692-768)* CRD
  binding result: no binding

B4: IES 51A1835 80-bp substrate (dsDNA)
DNA 1: ACTACTACATAATGCTAAACTCATTTATAGATGGATTGTTTTCCAAGTATCTATATCATCATGTGTTGCTAATAACCCTG
DNA 2: ATCGCAGGGTTATTAGCAACACATGATGATATAGATACTTGGAAAACAATCCATCTATAAATGAGTTTAGCATTATGTAGT
GST-Pgm(692-768) CRD [4]
  binding result: no binding
MBP-Pgm
  binding result: binds
